# In a protein production outcome set (Wang et al. 2014):
# Assay: label from the status in PepcDB records
row,Sequence,protein production
1,MLKLGVIGTGAISHHFIEAAHTSGEYQLVAIYSRKLETAATFASRYQNIQLFDQLEVFFKSSFDLVYIASPNSLHFAQAKAALSAGKHVILEKPAVSQPQEWFDLIQTAEKNNCFIFEAARNYHEKAFTTIKNFLADKQVLGADFNYAKYSSKMPDLLAGQTPNVFSDRFAGGALMDLGIYPLYAAVRLFGKANDATYHAQQLDNSIDLNGDGILFYPDYQVHIKAGKNITSNLPCEIYTTDGTLTLNTIEHIRSAIFTDHQGNQVQLPIQQAPHTMTEEVAAFAHMIQQPDLNLYQTWLYDAGSVHELLYTMRQTAGIRFEAEK,not failed
2,MLKLTPLLLAIAYGFLMYQFSVWRTKRMLDAQSRPLDEPEILALARRMAAALDLPTVKVSVFEVDPVNGLAAPDGRIFLTRGFLKKYRAGEVTAEELASVIAHELGHVALGHSRRRMIDFTGQNAVLMMLGAVLNRFVPFAGIWIARLLTSALSARLSRRDEHEADAYASALLVKAGIGTEPQKSLFRKLHRWSGMNSSAVPAWLMSHPVTDERIRRIEEREARWIEGLEHHHHHH,failed
3,MLKNIDPALNADVLHALRAMGHGDTLVISDTNFPSDSVARQTTVGKVLHIDNVSAARAMKAILSVLPLDTPLQPSVGRMEVMGAPDQLEPVQVEVQQEIDAAEGKSAPMYGIERFAFYEKAKQAYCVITTGETRFYGCFLLTKGVIPPK,not failed
4,MLKNLRIRKFEPEEEYVYFTYSIKNDKREKSKELIREYTTLLQKAIDYLWNLTKIQVRKKNGNYKITLPKKREVYKPLREELEKINHLASHYVDKAINDAFSILKSWRKRAIKGRASIEKPRVKKAYVRIKTTLRKVVGESVRITVRPHEYITFSWSKSWFSRRVRELELGEPIIKEEKVYLPFRYKLPWATPVDFLAIDSNLYTLDAYDGEKFVTISLKQLYSLKYSMEVKRAKVQSFASKHTKRGRELMRKYSHRERNRVLDFVHKFVNTLLDLYPMTFFAVEKLNKESMFKDANDSLSRKISRTVWGSIHRVLKYKAPLYGSFVKEVNPRFTSRSCPRCGFVSRKVGKTFECERCGFKLDRQLNASLNIYLKMCGFPHIREIARVWVGVIPLMGRRGMNGFPRDFGEAQGLRIDIEYHEIPLEHHHHHH,not failed
5,MLKPTHFVVAARVTLVLGGLAVAVLALGPFQGAERIVGLNDKAAHAIAFGGLLAVSFLAFPRMRRNDLAIAALVLGAGVEVAQLFGGRSASLLDWLADAAGVLTIYGASMIETVRKMAREQGDMTFAEIAATDRRRARRRAPAVFTPLVETPQTEHAPPLSFAQRAARRFPVS,failed
6,MLKQPIQAQQLIELLKVHYGIDIHTAQFIQGGADTNAFAYQADSESKSYFIKLKYGYHDEINLSIIRLLHDSGIKEIIFPIHTLEAKLFQQLKHFKIIAYPFIHAPNGFTQNLTGKQWKQLGKVLRQIHETSVPISIQQQLRKEIYSPKWREIVRSFYNQIEFDNSDDKLTAAFKSFFNQNSAAIHRLVDTSEKLSKKIQPDLDKYVLCHSDIHAGNVLVGNEESIYIIDWDEPMLAPKERDLMFIGGGVGNVWNKPHEIQYFYEGYGEINVDKTILSYYRHERIVEDIAVYGQDLLSRNQNNQSRLESFKYFKEMFDPNNVVEIAFATEQ,failed
7,MLKRIFTVGGFTLLSRLTGFARDIMLAAILGAGPVADAFFVALRLPNHFRAIFAEGAFNAAFVPAYAHVHGEKGEASAKLFADRIFTLLFLSQLVLLAVALAFMPQMMSILAPGFTDDPEQRALAIELTRITFPYLLLITLVTLYGGILNVMQRFASAAAASIFLNISMMATLALAAFFPSAGHAAAWGVLISGVLQYFLLAGDLSLHGGLPRFARPKLDEDVRAFFRALGPATLGSMGTQLALFADTIIATFLPAGALSALYYADRLNQLPIGVIGIAIGTVLLPEMSRQLTAGDDAGAKASQRRAFEFTLLFSVPFVAAFLTVPDEIMRAMFARGAFTRADAISAGTTLAAYAIALIPFVLIRSAVAPFYARKDTATPVKAALTGVATNVVLKFALMGSLAQVGLALATAAGAWINLLLVIFFSVRAGYLEFDRELVRAILKFGIIGVLLGAALWLTAWLAPPYLALLPALRSEAALALLILVGAVIYGAAILILFGPRWIKRLLRG,failed
8,MLKRKLILIAYTLLGLSSPVFSADYITENLSTYMRKGAGDQYKISGAVQAGEKVTVLDRKDRFVLIRDSRNREGWVLASEISQTASPKDLIPQLQQQVQDLSSKLGKIDADWQQRTLEMQRRSQQAEQQSSQLLDQNAQLKRELDILKNKNRDLETMHDSAKREIVIQWFIYGGSVLAVGLLLGLIIPFILPRRKRHNGWS,failed
9,MLKRLWQIFGPVICALVLVVVVIYAYPQGRKYSYEAEKRSAVTLTNENFKSRKNKTTALSDQNHRFVPYFGSSEWLRFDALHPAVLAEKYDRNYRPYFIGQRGSASLNQYLGMQQMLPELQNGTAVYVLSPQWFTKKGYNSAAFQQFFNNDQLSSFLSQNQTDANSQYAAKRILEMKPEITMKSQLSKVAKGQDLNTVDKTYIQFMAELNRREDSLFSPLAASNNANYDKKVLPYLKELPDQFSYDALDQLAVRDAEAHTKSNDFGIDDRFYKERLSKKIGKLKGFQKNLSYEVSQEYGDLQLVLNQFAKSNTNVIFVIPPVNSKWMAYTGLNQDMYDATVSKIRYQLESQGFTNIADFSKDGDQPYFMQDTIHMGWKGWVAFDRVVNSFVSNPTPAPSYKLNDRFYSKDWSGYTGTPSQFKLEHHHHHH,not failed
10,MLKSCPMNPRLDALHPYPFEKLRALLADAGKPTHDLPPINLSIGEPKHAAPACVGQAIAANLAGLSVYPSTKGEPALRQAISQWLSRRYSIPAPDPESEVLPVLGSREALFAFAQTVIDPSAGALVVCPNPFYQIYEGAALLAGATPYYVNADPARDFGCDWARVPDEVWRRTQLVFVCSPGNPAGNVMSLEEWRTLFELSDRHGFVIAADECYSEIYLDEDNPPLGSLQAARRLGRDRYTNLVAFSSLSKRSNVPGMRSGFVAGDAALLARFLLYRTYHGSAMSPVVSAASIAAWSDETHVQENRRQYRAKFEAVLPILQNVLDVRAPQASFYLWAGTPGSDTAFARELYGRTGVTVLPGSLLAREAHNANPGQGRIRIALVAPLDQCVQAAERIAHFARTSI,failed
11,MLKSEDADYEKAMKDKVGTGPQEYLKQLSDSLVKNQSAASVEVVSGATHSSDAFINYANQLIQAAQKADTTTISINNLAKMEDGTYKLEEQNYAHGYRVVFSMDVKDGKITKSDYNYVDKDGKLKSDDADYEKNMKAKSGTGPKEYIPALNKSLVEKQDVAAVDTVSGATNSSNQFKIYAAQLQNAAQNGNTDTIKVYNLVEAELEHHHHHH,failed
12,MLKTVRIIILGAMCTILSAAGFDPPQPAAAKSQADEYEYPFQDPSLPVQKRVSDLLSRLTLEEKVSLMHQYQPAVPRLGIPAFKTGTEALHGVAWLGEATVFPQAFGLAHTWDRYLIKQIGSAVGDEVRGFHHLDPAANGVNVWAPVVDLLRDPRWGRNEEGYSEDPFLTGEIATAYASGLRGDHPFYLKTVPTLKHFLAYNNETDRGFSSSSIDPRNMHEYYLKPFETAISKKAAYGLMPAYNSVNDKPAILSPLLDSTVKRRWAGDDFFIVSDAFDPSGIVNDHKYYDSHEKAHAHAVKAGIDNFTDQGENPELTRNALTGALKQGLISEKDLDQALANTFSIRFRTGEFDPDELNPYSRLTDDVINSPKHQLLAKKAAEKAIVLLKNDQDLLPFNARKNESIAVIGPFGNALYEDWYSGTMPYRKTPLDEIADKIGKDRVSFAEGLEQSGFKSALTGKFVTAGRDGKQPLTAAADKLEKSAAFDAADWGESIFTLRAQANGLYVSLQDDGRLIADQKQPNGRTVKETFQFEQQSDGTFAIKNTANGKYLTAGKDGTLTAAAEKPATAAEKFSKTIIKSGTDEAVQLAKSADKAIVFVGNNPYINGRETEDRKDITLPPAQENLLKAVSKANTNTVLVVTSSYPFALNWAKAHIPAIIYSAHGGQEAGSALADILYGDVNPGGRLTQTWHTSVKELPDMMNYDIIKGKRTYKYFVGKPLFPFGHGLSYTAFRYSDLSLSSDSIKKDGSVTIRVNVTNTGGRKGDEVVQLYTSPLFKTRVKQPNLDLKDFQRVELAPKETKTVTFKLKQTDLAFWDVTRETFAVERGPYRISVGSSAADIRKTKRIFVQGETIRERNLRRKTNAEDYDDYKGVLITEESKYGGDAVKSSTTNAWIAYHDVRFKGEKRIEAKVASSGAGEIGIFLDHPQKGKQIGSLKVPDTSGLQNWKTVKASVRKSTGTHRVFFVFKGKVAIDSFQFER,failed
13,MLLALLSLGTWPAVLTLLERRGRLPQHTYLDYSITNLLAAIIIAFTFGQIGSTKPDSPNFITQLAQDNWPSVMFAMAGGIVLSLGNLSTQYAWALVGLSVTEVITSSITVVIGSTLNYFLDDKINKAEILFPGVACFLIAVCLGSAVHRSNADDNKAKLRDFETAKQEASGPSTEIGTNSSKDLETNVTTKPKEGTARFLIELENTRAIKVFGKRKIIGLAITFFAGLCFSLFSPAFNLATNDQWNRLKQGVPKLVVYTAFFYFSVSCFIIALILNVVFLYYPVLGLPKSSFKAYLNDWNGRYWAFLAGFLCGFGNGLQFMGGQAAGYAAADSVQALPLVSTFWGVVLFGEYRRSSRKTYLLLFCMLFMFISAVAVLMASSGHRK,failed
14,MLLEGLLFVLAAGIFTAIVCGFGTLPFFFVDEISDRVTVALWGLAGGIMLFASLFGFIFEGLRDGTVFEVGAGLVVGVVVVVVADRIITGYEFEPRDIPDADFRKLVLIVGVLTVHSFPEGVALGVAFADLGIEGDLVLAGLAIPGLAIFITAAISIQNIPEGLAVAIPLHTYGIANWKIFGWAVFSSIPQPIGAGIAYVFVTTAREFLPFGFGFASGAMIFLVLHDIFPEGLDHGSDLPGHGRRELLVGIAVGVAIMLPVMLLTE,failed
15,MLLGVIPVLAILLLGFNIHLLVKERRYKKSWISFSMLGLNGLLFVAFTFFLLVYMAGFVTITTIPPFVYWFLIMLGFIIEGMSLYKKYVPGQMTAAAIHLFVVLPTIFSIGIVLLLVAIIELIVAMMNGTGGHPVPRNKQTTTP,failed
16,MLLHGTNRSLRTGLRARGRGSTGARGTLAVSHAAGPSSHSLTLHSCALLPYTLHAHAFFPCAQTNMASSKKAIYAAILGNFAIAVTKFLGAAVSGSSAMLAEGIHSLVDTGNGGLLLLGLRRSKRPPDENHPYGYGKSLYFYTLVVAVLIFGLGGGISLYEGILHTLDPGHGGASTASVLGVTVGGLMLNTVVLGAAIVFEGLALRTALQEFKKQRGDTPFFEAIVTSKDPTTFTVVFEDTAALAGLVVALVGIHLASLLHMPVIDGIASIIIGLILCGVAAFLIWESKKLLIGEAAAPEIRDDIRRMAHDDADIASVERLLTMHMGPRALLLNMDLRFRDDLDANTVEAAVDRLERAIRKAHPSIRYIFVEAGSIARTRASDSGASAAGGPPS,failed
17,MLLHLSTWQEVEAYLQQSKGIIFPIGSTEQHGPTGLIGTDAICAEAIAAGVGDATGAIVGPTINVGMALHHTAFPGTISLRPSTLIQVVRDYVTCLAKAGFSKFYFINGHGGNIATLKAAFSETYAHLEDLQIANAQQVQCQVANWFMCGSVYKLAKELYGDQEGSHATPSEVALTQYVYPEAIKQAPLSPEVASGHRIYSAADFRVRYPDGRMGSNPGLATPEHGKQFYDLAVKELSNGYLEFVNAD,not failed
18,MLLIFFKKYEQSDIMRKLFLLSILMIGVIVAFAGCVEESKTTTQLQQTTQSESQKAETQPKLGVNVVRYAETFKLYPHWDEGYCVVADSVGNKFVLVEGNAKAPNISDGKIIKVPVKRIVTDFYCPIISAADILNAYHHTIVGAPKYAVEKSPKLKELFDEGKVVDIGSPSKGVNYELIVNLTPDIVFLGDWKSEDVVEEKLKELGVTVSRFYTYQEPTYMGRVEWIKFAAAFWGSNAYKKADKWFENVVKVRENILKKVQNVTNEPTVVIFSWSKTKNMPGIYGNDSYYSKMIAEFKGKNVFDDYNRGYQYVDKETFYERAMNADVVILIWFYGDVKTKEDLLKINPNFAEFKAFKTGRFYVSHPDYYVWEARDPAGYMMDFAKMIHPELFGGDDDLKYYYKIK,failed
